Experimental data as given in PMC2193935 (The Journal of Experimental Medicine, 2002).

Molecular target: the molecule itself
Assay: SDS-PAGE under non-reducing and reducing conditions with Western blot

B1: Epo-Fc/IHH (Epo-Fc with three inactivating point mutations in the FcRn-binding site of the Fc domain) (Fc fusion)
chain: APPRLICDSRVLERYILEAKEAENVTMGCAEGPRLSENITVPDTKVNFYAWKRMEVEEQAIEVWQGLSLLSEAILQAQALLANSSQPPETLQLHIDKAISGLRSLTSLLRVLGAQKELMSPPDTTPPAPLRTLTVDTFCKLFRVYANFLRGKLKLYTGEVCRRGDRGGSGGSVPRDCGCKPCICTVPEVSSVFIFPPKPKDVLTATLTPKVTCVVVDISKDDPEVQFSWFVDDVEVHTAQTQPREEQFNSTFRSVSELPIMAQDWLNGKEFKCRVNSAAFPAPIEKTISKTKGRPKAPQVYTIPPPKEQMAKDKVSLTCMITDFFPEDITVEWQWNGQPAENYKNTQPIMNTNGSYFVYSKLNVQKSNWEAGNTFTCSVLHEGLHNAHTEKSLSHSPGK
modifications: glycosylated (oligosaccharides cleaved by PNGase F)
For B1, the “stoichiometry N” value was 2.
